Experimental data from patent publication US20260250338A1 (Molecular Partners, published 2026).

Columns and labels:
[1] = molecular target: T1, full length human CD16b stably expressed on transduced WT Jurkat cells (human, UniProt O75015 17-200); assay: flow cytometry on Jurkat-CD16b cells, serial dilutions, detection with Penta-His Alexa Fluor 647
T1 construct: whole, on cells; also called CD16b expressing cells; Jurkat CD16b

[2] = molecular target: T2, CD16aV allotype of human CD16a expressed on Jurkat-Lucia-NFAT-CD16 Reporter cells (InvivoGen) (human, UniProt P08637 17-254); assay: flow cytometry on Jurkat-CD16aV cells, serial dilutions, detection with Penta-His Alexa Fluor 647
T2 construct: whole, on cells; also called CD16a expressing cells; Jurkat CD16aV
T2 sequence (P08637 17-254 F176V): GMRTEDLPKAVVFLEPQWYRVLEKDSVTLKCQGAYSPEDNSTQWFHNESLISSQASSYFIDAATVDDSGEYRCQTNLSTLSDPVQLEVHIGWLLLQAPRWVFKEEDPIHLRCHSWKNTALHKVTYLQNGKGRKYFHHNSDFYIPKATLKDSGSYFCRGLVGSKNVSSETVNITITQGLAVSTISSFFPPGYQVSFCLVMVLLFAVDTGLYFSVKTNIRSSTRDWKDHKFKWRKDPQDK

[3] = molecular target: T2, CD16aV allotype of human CD16a …; assay: flow cytometry on Jurkat-CD16aV cells, 5-fold serial dilutions, detection with Penta-His Alexa Fluor 488
Procedure: (§1) Serial dilutions (5-fold) of the constructs were incubated 30 min at 4° C. with 50000 cells in a 96-well plate. […] Cold buffer was added, then cells were spun down prior to supernatant removal. Cells were then fixed with Cell fix buffer (BD) and signal was measured by flow cytometry.

[4] = molecular target: T1, full length human CD16b stably …; assay: flow cytometry on Jurkat-CD16b cells, 5-fold serial dilutions, detection with Penta-His Alexa Fluor 488
Procedure: as §1

[5] = molecular target: T2, CD16aV allotype of human CD16a …; assay: cell-based or functional assay
[6] = molecular target: T2, CD16aV allotype of human CD16a …; assay: cell-based or functional assay; remark: listed apart in the source
[7] = molecular target: T3, CD32a expressed on Jurkat-NFAT-CD32a reporter cells (Invivogen jktl-nfat-cd32) (UniProt P12318 34-317, limits assumed); assay: flow cytometry on Jurkat-NFAT-CD32a cells, 4-fold serial dilutions, detection with anti-DARPin 1.1.1 antibody
T3 construct: whole, on cells; also called Jurkat-Lucia NFAT-CD32a Reporter cells; Fc receptor CD32a
T3 sequence (looked up): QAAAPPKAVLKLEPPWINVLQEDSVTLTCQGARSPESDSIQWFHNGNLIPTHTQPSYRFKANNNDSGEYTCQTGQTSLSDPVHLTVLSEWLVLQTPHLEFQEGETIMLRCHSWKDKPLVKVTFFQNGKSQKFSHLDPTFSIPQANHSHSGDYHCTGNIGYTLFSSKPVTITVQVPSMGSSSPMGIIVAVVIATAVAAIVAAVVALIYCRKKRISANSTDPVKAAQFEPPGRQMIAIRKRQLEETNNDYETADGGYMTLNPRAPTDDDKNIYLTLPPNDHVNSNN
Procedure: Serial dilutions (4-fold) of the constructs were incubated 30 min at 4° C. with 50000 cells in a 96-well plate. Detection antibody (anti-DARPin 1.1.1 Alexa Fluor […]) was subsequently added to the wells (2 μg/ml diluted in FACS buffer) and incubated at 4° C. for 30 min. Cold buffer was added, then cells were spun down prior to supernatant removal. Cells were then fixed with Cell fix buffer (BD) and signal was measured by flow cytometry.

[8] = molecular target: T2, CD16aV allotype of human CD16a …; assay: cell-based or functional assay; remark: listed apart in the source
[9] = molecular target: T1, full length human CD16b stably …; assay: flow cytometry on Jurkat cells expressing CD16b, conditions as in Example 2
[10] = molecular target: T2, CD16aV allotype of human CD16a …; assay: flow cytometry on Jurkat cells expressing CD16aV, conditions as in Example 2
[11] = molecular target: T4, biotinylated human CD16aV target (bio-CD16aV of SEQ ID NO: 72) (human, UniProt P08637 17-208, biotinylated (Sulfo-NHS-LC-Biotin kit)); assay: SPR (ProteOn XPR36), bio-CD16aV immobilised on NLC chip, construct injected at 100 nM and 1:3 dilutions, PBST, 1:1 Langmuir fit
T4 construct: also called recombinant CD16a target
T4 sequence (P08637 other isoform, or with tags, fused parts or gaps): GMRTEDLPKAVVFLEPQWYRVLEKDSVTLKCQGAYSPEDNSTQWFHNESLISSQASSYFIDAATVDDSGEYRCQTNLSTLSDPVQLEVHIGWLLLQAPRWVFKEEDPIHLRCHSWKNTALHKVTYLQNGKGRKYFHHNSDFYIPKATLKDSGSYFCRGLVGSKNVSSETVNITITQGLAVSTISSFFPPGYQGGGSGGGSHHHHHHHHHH
Procedure: SPR measurements were performed using a ProteOn XPR36 instrument (BioRad). […] The signals were double referenced against the running buffer (PBST) treated control lanes.

[12] = molecular target: T4, biotinylated human CD16aV target …; assay: SPR (ProteOn XPR36), biotinylated target on neutravidin chip, DARPin injected at 100 nM and 1:3 dilutions, 1:1 Langmuir fit
Procedure: (§2) SPR measurements were performed using a ProteOn XPR36 instrument (BioRad). Each of biotinylated human target (bio-CD16aV of SEQ ID NO: 72) and biotinylated cyno target (bio-cCD16 of SEQ ID NO: 76) were immobilized on a neutravidin chip (NAHLC200M, Xantec ProteOn Sensor Chip) to a level of about 320 RU. The interactions of purified CD16a-specific ankyrin construct with bio-CD16aV or bio-cCD16 were measured by injecting the DARPins at 100 nM (and 1:3 dilutions) with an association of 180 s and dissociation of 600 s using a constant flow of 30 μl/min. The target was regenerated between the individual measurements using 31 mM H3PO4. The signals were double referenced against the running buffer (PBST) treated control lanes. The KD were calculated with a 1:1 Langmuir model fitting from the estimated on- and off-rates using standard procedures known to the person skilled in the art.

[13] = molecular target: T5, biotinylated cynomolgus CD16 target (bio-cCD16 of SEQ ID NO: 76) (cynomolgus monkey, biotinylated); assay: as above
T5 construct: also called Cyno CD16a
T5 chain: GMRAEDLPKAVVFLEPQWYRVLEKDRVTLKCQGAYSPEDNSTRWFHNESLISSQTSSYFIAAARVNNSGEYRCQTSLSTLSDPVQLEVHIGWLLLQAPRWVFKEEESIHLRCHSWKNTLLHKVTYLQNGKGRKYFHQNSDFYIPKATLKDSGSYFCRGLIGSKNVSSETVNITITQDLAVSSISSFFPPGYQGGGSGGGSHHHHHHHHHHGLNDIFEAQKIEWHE
Procedure: as §2

T1 sequence (O75015 17-200): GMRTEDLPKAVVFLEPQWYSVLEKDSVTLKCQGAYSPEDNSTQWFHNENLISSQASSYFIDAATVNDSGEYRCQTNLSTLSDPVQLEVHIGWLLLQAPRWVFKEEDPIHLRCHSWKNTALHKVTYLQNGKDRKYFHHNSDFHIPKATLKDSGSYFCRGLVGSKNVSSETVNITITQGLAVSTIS

B1: Construct No. 17 (SEQ ID NO: 20), 2D (HER2 × CD16a), DARPin #5 with N-terminal HER2 binder of SEQ ID NO: 9 (designed binder)
chain: MRGSHHHHHHDYKDDDDKPTPTPTGSDLGIKLLFAAAKGQDDEVRELLKAGADVNAKDFQGVTPLHIAAQSGHLEIVEVLLKAGADVNAKDVTGDTPLHLAAQHGHLEIVEVLLKAGADVNAQDERGWTPADLAADWGHEDIAEVLQKAAGSPTPTPTTPTPTPTTPTPTPTGSDLGAKLLRAAKKGQDDEVRELLKAGADVNAKDELGFTPLHVAAEEGHLEIVEVLLKAGADVNAKDSWGATPLHVAAWVGHLEIVEVLLKAGADVNAQDQEGQTPADLAAEAGHEDIAEVLQKAA
notes: Bispecific DARPin; also called Construct 17
B1: no binding (tested: 1000 nM) [1]; binds [2].

B2: Construct No. 2 (1D CD16a; DARPin #3 of SEQ ID NO: 3 with N-terminal His tag) (designed binder)
chain: MRGSHHHHHHGSDLGKKLLQAARAGQLDEVRELLKAGADVNAKDEQGRTPLHIAAASGHLEIVEVLLKAGADVNAKDWFGITPLHIAAWWGHLEIVEVLLKAGADVNAKDQEGRTPLHIAAAIGHLEIVEVLLKAGADVNAQDKSGKTPADLAARAGHQDIAEVLQKAA
notes: also called Construct 2
B2 was tested, and the “EC50 (read off the curve)” value [3] was ~20 nM and the binding result [4] was “no binding (tested: 1000 nM)”.

B3: Construct No. 7 (SEQ ID NO: 10), 2D (HER2 × CD16a), DARPin #2 with N-terminal HER2 binder of SEQ ID NO: 8 (designed binder)
chain: MRGSHHHHHHGSDLGKKLLEAARAGQDDEVRELLKAGADVNAKDEYGLTPLYLATAHGHLEIVEVLLKAGADVNAVDAIGFTPLHLAAFIGHLEIAEVLLKAGADVNAQDKFGKTPADIAAGAGNEDIAEVLQKAAGSPTPTPTTPTPTPTTPTPTPTGSDLGQKLLRAAKKGQDDEVRELLKAGADVNAKDEQGWTPLHIAAWKGHLEIVEVLLKAGADVNAKDVFDWTPLHVAAHFGHLEIVEVLLKAGADVNAQDRAGETPADLAAQAGHEDIAEVLQKAA
notes: Bispecific DARPin; also called Construct 7
B3 was tested, and the “EC50 ADCC reporter assay (CD16a) (pM), SKOV3 target cells, E:T 1:1, 24 h” value [5] was 4 pM, the “EC50 (pM), ADCC reporter assay (luminescence), SKOV3 target cells, E:T 5:1, 5 h” value [6] was 0.37 pM and the binding result [7] was “no binding (tested: 400 nM)”.

B4: Construct No. 18 (SEQ ID NO: 21), 2D (HER2 × CD16a), DARPin #6 with N-terminal HER2 binder of SEQ ID NO: 9 (designed binder)
chain: MRGSHHHHHHDYKDDDDKPTPTPTGSDLGIKLLFAAAKGQDDEVRELLKAGADVNAKDFQGVTPLHIAAQSGHLEIVEVLLKAGADVNAKDVTGDTPLHLAAQHGHLEIVEVLLKAGADVNAQDERGWTPADLAADWGHEDIAEVLQKAAGSPTPTPTTPTPTPTTPTPTPTGSDLGKKLLEAAEEGQDDEVRELLKAGADVNAKDEWGSTPLHIAAWVGHLEIVEVLLKAGADVNAKDSLGATPLHLAAEAGHLEIVEVLLKAGADVNAQDLKGKTPADLAALEGHEDIAEVLQKAA
notes: Bispecific DARPin; also called Construct 18
B4: no binding (tested: 1000 nM) [1]; binds [2].

B5: Construct 25 (SEQ ID NO: 94), CD117 × CD16a, CD117 binder SEQ ID NO: 84 N-terminal of DARPin #7 (designed binder)
chain: MRGSHHHHHHGSDLGQKLLKAAQYGQDDEVRILLAAGADVNAKDWAGKTPLHVAAEAGHLEIVEVLLKAGADVNAKDKAGETPLHLAAEQGHLEIVEVLLKAGADVNAQDEWGQTPADLAAYYGLEDIAEVLQKAAGSPTPTPTTPTPTPTTPTPTPTGSDLGQKLLRAAKKGQDDEVRELLKAGADVNAKDEQGWTPLHNAAWKGHLEIVEVLLKAGADVNAKDVFDWTPLHVAAHFGHLEIVEVLLKAGADVNAQDRAGETPADLAAQAGHEDIAEVLQKAA
notes: Bispecific DARPin; also called Construct No. 25
B5 was tested, and the “EC50 (pM), DDCC reporter assay (luminescence), Kasumi-1 target cells, E:T 1:1, 24 h” value [8] was 59.5 pM, the “Top (RLU), DDCC reporter assay (luminescence), Kasumi-1 target cells” value [8] was 36400 RLU and the binding result [9] was “no binding”. The EC50 [10] was 25.3 nM.

B6: Construct No. 1 (1D CD16a; DARPin #2 of SEQ ID NO: 2 with N-terminal His tag) (designed binder)
chain: MRGSHHHHHHGSDLGQKLLRAAKKGQDDEVRELLKAGADVNAKDEQGWTPLHIAAWKGHLEIVEVLLKAGADVNAKDVFDWTPLHVAAHFGHLEIVEVLLKAGADVNAQDRAGETPADLAAQAGHEDIAEVLQKAA
notes: also called Construct 1
B6 showed a Kd [11] of 3.3 nM, a Kd [12] of 5.94 nM and a Kd [13] of 3.41 nM. B6: binds [3]; no binding (tested: 1000 nM) [4].

B7: DARPin #7 (SEQ ID NO: 7) with N-terminal His tag (designed binder)
chain: MRGSHHHHHHGSDLGQKLLRAAKKGQDDEVRELLKAGADVNAKDEQGWTPLHNAAWKGHLEIVEVLLKAGADVNAKDVFDWTPLHVAAHFGHLEIVEVLLKAGADVNAQDRAGETPADLAAQAGHEDIAEVLQKAA
B7 was tested, and the Kd [12] was 1.98 nM and the Kd [13] was 0.904 nM.

B8: Construct No. 16 (SEQ ID NO: 19), 2D (HER2 × CD16a), DARPin #4 with N-terminal HER2 binder of SEQ ID NO: 9 (designed binder)
chain: MRGSHHHHHHDYKDDDDKPTPTPTGSDLGIKLLFAAAKGQDDEVRELLKAGADVNAKDFQGVTPLHIAAQSGHLEIVEVLLKAGADVNAKDVTGDTPLHLAAQHGHLEIVEVLLKAGADVNAQDERGWTPADLAADWGHEDIAEVLQKAAGSPTPTPTTPTPTPTTPTPTPTGSDLGEKLLLAAALGQDDEVRELLKAGADVNAKDVQGSTPLHLAAVEGHLEIVEVLLKAGADVNAKDQWGQTPLHVAAIWGHLEIVEVLLKAGADVNAQDELGKTPADLVALQGHEDIAEVLQKAA
notes: Bispecific DARPin; also called Construct 16
B8: no binding (tested: 1000 nM) [1]; binds [2].
